From the DeepSol protein solubility set

Test: soluble on expression in E. coli; label from the status in PepcDB or PDB records

Sequence | soluble on expression in E. coli
MSNVQTSAEREIVDLSHLAFDCGMLGRLKTVSWTPVIAGDSFELDAVGALRLSPLRRGLAIDSKVDFFTFYIPHRHVYGDQWIQFMRDGVNAQPLPSVTCNRYPDHAGYVGTIVPANNRIPKFLHQSYLNIYNNYFRAPWMPERTEANPSNLNEDDARYGFRCCHLKNIWSAPLPPETKLAEEMGIESNSIDIMGLQAAYAQLHTEQERTYFMQRYRDVISSFGGSTSYDADNRPLLVMHTDFWASGYDVDGTDQSSLGQFSGRVQQTFKHSVPRFFVPEHGVMMTLALIRFPPISPLEHHYLAGKSQLTYTDLAGDPALIGNLPPREISYRDLFRDGRSGIKIKVAESIWYRTHPDYVNFKYHDLHGFPFLDDAPGTSTGDNLQEAILVRHQDYDACFQSQQLLQWNKQARYNVSVYRHMPTVRDSIMTS | soluble
MSNVSSETVNLNNTSIVHMNMSNVTKLTASNYIMWSRQVHALLHGYGLTQYLDATKAAPAREITVNDVASVNPEYEAWSRQDQLIFSALIGTLSLTVQPTVSRAATSADVWATLAGTYAKPSRGHIKQLQHQIKQWKKDTRTIDEYVQGFINRFDQLALIGKIIDHEDQVDYILGGLPEDYKPIVDQMEGRDTPPNGCLTNSCDEDGCFIQMALNSV | soluble
MSNVYVMALDFGNGFVKGKINDEKFVIPSRIGRKTNENNQLKGFVDNKLDVSEFIINGNNDEVLLFGNDLDKTTNTGKDTASTNDRYDIKSFKDLVECSIGLLAREVPEEVVNVVIATGMPSNEIGTDKQAKFEKLLNKSRLIEIDGIAKTINVKGVKIVAQPMGTLLDLNMENGKVFKAFTEGKYSVLDFGSGTTIIDTYQNMKRVEEESFVINKGTIDFYKRIASHVSKKSEGASITPRMIEKGLEYKQCKLNQKTVIDFKDEFYKEQDSLIEEVMSNFEITVGNINSIDRIIVTGGGANIHFDSLSHYYSDVFEKADDSQFSNVRGYEKLGELLKNKVEQESKRGSHHHHHH | soluble
MSNYPLHQACMENEFFKVQELLHSKPSLLLQKDQDGRIPLHWSVSFQAHEITSFLLSKMENVNLDDYPDDSGWTPFHIACSVGNLEVVKSLYDRPLKPDLNKITNQGVTCLHLAVGKKWFEVSQFLIENGASVRIKDKFNQIPLHRAASVGSLKLIELLCGLGKSAVNWQDKQGWTPLFHALAEGHGDAAVLLVEKYGAEYDLVDNKGAKAEDVALNEQVKKFFLNNVVDKLAAALEHHHHHH | soluble
MSPAPELQIPTVTRQSDGTKIHEISGHKFKAVGLAQPTFCSFCSKFIYGVGKQGYKCLGCETVVHKRCHALITARCTFGPSSRAPVPAETTNLKTRRSRSASEEPPSNTHHFNKHFFTRPTFCDHCGSMLYGLTKQGVQCTDCHANVHFRCQEKVLRNCGIQCQ | not soluble
MSPDSCPLVKNILLLDSEGKRVAVKYYSDDWPTNAAKLSFEKYVFSKTSKTNARTEAEITLLDSNIIVYKFAQDLHFFVTGGENENELILASVLQGFFDAVALLLRSNVEKMEALENLDLIFLCLDEMVDQGVVLETDPNVIAGKVAMQSTEASGSLSEQTLTQALATAREHLARSLLT | soluble
MSPIDQVLAAACALDASGKAPSLALIKSRLGNKFPMPILIQGLQQFKSMPKAERERLAALSIPEVEEQKPTEPVPLSVTTLAAQLTELQKGFEQAIALKNTEIMQLTNELIELKQRVNQLELQGKSV | soluble
MSPRSPRHDKILQLVRENGFMPIEELARLLDVTPQTIRRDINQLCEANLLRRYHGGAALGNSVENEDYFARKGKFQSEKAHIADMIARSIPDHASLFMSIGTTIEAVAQALTATHKGLRVITNNIHVASIMSTNPDFTAMITSGTVRASDGGITGVATLDFINQFKVDYAIIGVSGIEPDGSLLDFDYREVRVAQAMMNNARHRYLAADHSKFGRNALVRMGHISEFHTVFTDAAPPEPVTKLLEEHNVRLVLSEALEHHHHHH | soluble
MSPSSATPARCSIARTLELLGDKWTLLIVRDAFWGHSRFSEFTRSLGVASDVLTARLAMLVDEGILERRAYRQEGSRERLEYVLTEKGKQLHVVIGALGQFGRDHLPRPGSTSPEYSDETTGEAVSLAFVTDDGRRVSASTLHVQQGTPAPAADPQG | not soluble
MSQAELPVLRVAYMPLIDCAPLVAASRLGLDHAYGLQLQLHRQASWAGVRDRLLAGEVDAAHTLASLVYAIDLGVGGPQCPMALLMTLNHNGQAITLAPALAQGVAAGQPLPQVLAEAGRRVVFAQTFPTGTHALWLYYWLAACGVDPMRDVDVVSIPPPQMPEALASGLVDGYCSGEPWAAVAEAQGSGQRVIRSGELWPEHPEKVLACRREFAALQPELSERLTACVLEACRWLDAAPANRAQCAQWLADPDYIGVPAAHLAACLDADAATVSVDPSALAFHRGGAVNMPWLSDGEWFLEQFQRWGWHTLQAADLARLHDIHRLDNYRRAAQRAGVTAPDADRRINRLFDTPAALEHHHHHH | not soluble
MSQDPFALLKAEVDLLGRLLGEAIRTLSGERFFALVEEVRALAKARRQGDEAAGEALLARVEGLSTEEAEALVRAFTHYFHLVNLAEERHRVRVNRLRAQAETLESPRPEGFLALAKALKERGLSLEEAEAHLNRLELLLTFTAHPTETRRRTLRHHLEALQRELEAGDRERLAARVALLYGTEEVRKARPTVEDEIKGGLYYLPTTLWEAVPRVVAGLEAALERVYGRRPRLKSPVRFRSWIGGDRDGNPFVTPEVTAFAGRYAREVARRRFLEALEDLVRDLSLAEARVPVPREVRERGEGVERFMGEPYRRYFAALYRALEREEATTEGLLAALKAAERGLREVGLGRVAEAFLDPLEARLSAFGLELAPLDLREESGRLLEAAAELLRVGGVHPDFLALPQEERERLLTEELKTARPLLPVGEAPEGEALRVALGALKAWRDKGAHVVSMTHHPEDLLAVFLLAREVGLYRPGRPLPFDVVPLFETLEDLRRAPGVLRRLLENPVFLAHARGRGGVEVMIGYSDSNKDAGFLMANLALYEAQEALSRVGEEVGLPVYFFHGRGTSTARGGGPAGRAIASLPPRSVGRRIRLTEQGEALADRYSHPDLAVRHLEQMLYHFALAALGPGQEPEARWREALAQAAEESTRRYRALLQEEGFFDFFEAFTPIREIGELPIASRPVYRRGRVRDIRDLRAIPWVMAWTQVRVLLPGWYGLSALEELPLDLLREMYRGWPFFASTLEAAAMALAKADMGVARLYLRLVPEPLRFFYRRLAEEHARTVALLEAVFQAPLLHNQRTLERQIRLRNPYVDPINIVQVELLRRYRAPGGKEDEALRRALLLSILGVAAGLRNAG | soluble
MSQEALKAPVVVLGAGLASVSFVAELRQAGYQGLITVVGDEAERPYDRPPLSKDFMAHGDAEKIRLDCKRAPEVEWLLGVTAQSFDPQAHTVALSDGRTLPYGTLVLATGAAPRALPTLQGATMPVHTLRTLEDARRIQAGLRPQSRLLIVGGGVIGLELAATARTAGVHVSLVETQPRLMSRAAPATLADFVARYHAAQGVDLRFERSVTGSVDGVVLLDDGTRIAADMVVVGIGVLANDALARAAGLACDDGIFVDAYGRTTCPDVYALGDVTRQRNPLSGRFERIETWSNAQNQGIAVARHLVDPTAPGYAELPWYWSDQGALRIQVAGLASGDEEIVRGEVSLDAPKFTLIELQKGRIVGATCVNNARDFAPLRRLLAVGAKPDRAALADPATDLRKLAAAVAA | soluble
MSQFDLTPPSPAQRDALIAGLSDEEQRVLLHHGTEAPFCGVFLDNKLDGVYTCRLCGLPLFRSNAKFDSGTGWPSFFAPYDPAHVREIRDTSYGMVRTEIVCARCDSHLGHVFPDGPPPTGERHSLNSVSLAFTEDGQPLPNPLQRAGAETQPA | soluble
MSQGHRDAGAAACRTIIVTNHCPPIMRKRDIWRVDQFHLLRKVGSGYASTVYLGTCRTSGNQVAVKLYHKQKLSELNHFQVAREITIHSSLDHKNIIQLWAAFEDQYGIYLVFEYASKGDVFTEVERRGGQLDEAETVRAVVYPFLSALDYLHSRCIIHRDIKPENLLFTATGVLKVADFGLSINFSQERPVTRVGTLDYMAPEVVVCPDKHRPQDHKELKHLHYTPLVDAWAVGVLAYELIVGRPPFDKGQKKATIAEILNSEPFIPPWLSEGATHFIRWSLTKEVGKRPSVQQLAEHPWIVSHMKQSVLAPARRQLVKTDSFVEPRQLGFRGSNAPGAGEPSGPSKEPPRPLQVSSVAQGGRFLGHSSSMSAMDGMRYRDIHLDSVTGGMASAATEALKSVKRVSDGDGTTGGRPSAAGGRVSRAGTARNSGTGQAPLSRMNSMSAQAVVAAAAAAMASGSFGGAAHGSEDSPKGGRALTREELYASLTAPLGGRGSPVLARSFTAGRASPAPQQMAPLPTNAGRKSGGGGLGSGRSSLSGQATGAPPSRGAAELAHDLSRLRVDSAASGGGGAAGPSTSASGAVPYSPGKGSSGIRPSPPQAPSPTARGLRTGSPLIPSRLSQSFTSPVSPLAAGSNASAGTPHLSRLGKTSNSGIVPAVATANTPGSARPPAGMDAHSSAASSAAAAGAQSSPHQPAAAAAGSSLTVSTTPASPGGSSGYGQTRASPRELPGERDPELEDSEVEDEPETERSPSKSKSLFKKIFS | not soluble
MSQIMYNYPAMLGHAGDMAGYAGTLQSLGAEIAVEQAALQSAWQGDTGITYQAWQAQWNQAMEDLVRAYHAMSSTHEANTMAMMARDTAEAAKWGG | not soluble
MSQKRSLVFAIRDFPPGCGTHIDVSSSLNHPAEKAFKHPRTGDVSGENLSFAEAKPEGTCLKRESADQDHIFAAPEHNAKREPAGQDHVVAATTVAYATSSHRQKVEIGNSDCDPTPREKVLEVLSLFKQVYNQLDRDKKARRGGDFLDATSRIDLKTLTVLEKMGKQVNTEKRIGSVPGINIGDVFQYKTELRVVGLHSKPMCGIDYIKLGDDRITTSIVASEGYGYNDTYNSGVMVYTGEGGNVINKQKKTEDQKLVKGNLALATSMRQKSQVRVIRGEERLDRKGKRYVYDGLYMVEEYWVERDVRGKSVYKFKLCRIPGQLPLT | not soluble
MSQLMNAHDRRNEPAPNAPPEFQLQNRTRPAPTPIEYITLSSDDEIEVIPPPPKRAKMMEEQKPKDLLENPQLPEVPSSSASFVIPQIVVDNEEVPEDPRMKTPSPIQGASVAMPVRARIQESPKVSRDPTPLSRASSVVIPEVPAVSEPEPLPVEVLAISIPTTSPDTAPSTSSSVETVESVTEVVAISSAEASSDAPARSPLKKKVANSVKPVVLPSRKSTRNKKDMNQIKEDEELVSNFNNGIGVISRGTIVPRGLSRTPFHFKKEATDDKAGKVKDMLKIDMQPVFTPAGHSSKDLIKRKARNSLEPSTSDADISFMKNERGKIRTGEKFQATIPDIEPSSTLTEYMDQEDKEEIFWETLDMDKDNLEESKKFHETLRNVYWRAIWRQFQGHIPFETALQHLMKNNLDFAQSLETIDENLKSLPQSFKEPCVAQVKIFDKLLQDKKTTRRQLQEKAMRNYHIAEVQQYHYRFRKFFKYQEKYGVVCNCAEKLCNNLKFEPRYGCTNCKKNVKSSSDHGATEKLCLICQTYQKLTGNVRPARNVEFCDDELEKIYHWSQKEEDLNRTLSREEFEELVREEKNKKWKNNDLSAEETAMLNQKELRIPNRRHRTHLSDQEKQARGEKICAQLQPYVLPHFSKCNCKRMGRSSWRCETEGKSSFSIQERKDYFREVRDCKGDLQQVARNLKVAPEVVRAFINIYGIEYDLEIYFPNKKLPNLIPIVYDIPPSNLPPIIPDGSSNSSSRDGSPYIPPEERSPKKRRSN | not soluble
MSQLQEMMTVVSQREVAYNIFEMVLKGTLVDEMDLPGQFLHLAVPNGAMLLRRPISISSWDKRAKTCTILYRIGDETTGTYKLSKLESGAKVDVMGPLGNGFPVAEVTSTDKILIIGGGIGVPPLYELAKQLEKTGCQMTILLGFASENVKILENEFSNLKNVTLKIATDDGSYGTKGHVGMLMNEIDFEVDALYTCGAPAMLKAVAKKYDQLERLYISMESRMACGIGACYACVEHDKEDESHALKVCEDGPVFLGKQLSL | soluble
